According to paper PMC6881179:

What was measured:
Test in all cases: SPR
[1] = molecular target: BES1 transferrin receptor (glycosylated heterodimer of BES1 ESAG6 and BES1 ESAG7) (Trypanosoma brucei) (UniProt Q8WPU1)
[2] = molecular target: BES17 transferrin receptor (glycosylated heterodimer of BES17 ESAG6 and BES17 ESAG7) (Trypanosoma brucei) (UniProt Q8WPU1)
[3] = molecular target: BES17e6BES1e7 chimera (BES17 ESAG6 with BES1 ESAG7) (Trypanosoma brucei) (UniProt Q8WPU1)
[4] = molecular target: BES1e6BES17e7 chimera (BES1 ESAG6 with BES17 ESAG7) (Trypanosoma brucei) (UniProt Q8WPU1)

In the case of “cow transferrin (from UniProt Q29443 20-704) (ligand)”, the Kd [1] is reported as 80.1 nM.
Substance “human holo-transferrin (from UniProt P02787 20-698) (ligand)” has a Kd [2] of 13.1 nM, a Kd [3] of 353 nM and a Kd [4] of 243 nM.
